From article PMC9060471 come the findings set out here.

As usually defined, the EC50 is the concentration at which the effect is half-maximal. Lower therefore signals an effect from little substance. What is called Kd is the constant that tells how readily two partners part at equilibrium. Lower therefore signals tighter binding.

The target in assay [1] is 6xHis-TLX ligand-binding domain, Q9Y466. Description: AlphaScreen or HTRF; ALPHA; atrophin peptide on donor beads, TLX ligand-binding domain on acceptor beads; competition with untagged atrophin peptide.
Assay [2] has the same target. Put plainly: BLI; 6xHis-TLX LBD on Ni-NTA biosensors, Octet Red 96; atrophin peptide in solution.

Chain of 6xHis-TLX ligand-binding domain, Q9Y466 (Q9Y466 155-385): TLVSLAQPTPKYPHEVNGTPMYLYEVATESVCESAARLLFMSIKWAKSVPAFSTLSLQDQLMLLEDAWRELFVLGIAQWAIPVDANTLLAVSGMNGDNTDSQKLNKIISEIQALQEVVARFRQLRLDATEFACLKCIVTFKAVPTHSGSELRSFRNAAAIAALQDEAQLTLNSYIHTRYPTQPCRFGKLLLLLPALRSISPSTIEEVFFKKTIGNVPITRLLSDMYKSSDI

On to PPYADTPALRQLSEYARPHVAFSP (modifications not checked) [atrophin corepressor peptide (untagged)], for which the EC50 in assay [1] was 1.3 µM. Besides, the Kd in assay [2] was found to be 14.2 µM.
